# Data taken from patent US20240024520A1, “AUTONOMOUS KNOB DOMAIN PEPTIDES” (UCB BIOPHARMA SRL, priority 2020, published 2024).
# B1: hC3Nb1 N-Term (protein)
# VHH: TTVHQRTIKSGCPPGYKSGVDCSPGSECKWGCYAVDGRRYGGYGADSGVGSTYTHEFYVDAWGQGSSSSGSSSSGQVQLVETGGGLVQAGGSLRLSCAASGSIFSLNAMGWFRQAPGKEREFVATINRSGGRTYYADSVKGRFTISRDNGKNMVYLQMHSLKPEDTAIYYCAAGTGWSPQTDNEYNYWGQGTQVTVSS
# modifications: left off: a dimerising Fc or GST
# B2: hC3Nb1 Loop 2 (protein)
# VHH: QVQLVETGGGLVQAGGSLRLSCAASGSIFSLNAMGWFRQAPSGGGSGCPPGYKSGVDCSPGSECKWGCYAVDGRRYGGYGADSGVSGGGSKEREFVATINRSGGRTYYADSVKGRFTISRDNGKNMVYLQMHSLKPEDTAIYYCAAGTGWSPQTDNEYNYWGQGTQVTVSS
# modifications: left off: a dimerising Fc or GST
# B3: hC3nb1: camelid VHH which binds C3 and C3b, PDB code 6EHG (protein)
# VHH: QVQLVETGGGLVQAGGSLRLSCAASGSIFSLNAMGWFRQAPGKEREFVATINRSGGRTYYADSVKGRFTISRDNGKNMVYLQMHSLKPEDTAIYYCAAGTGWSPQTDNEYNYWGQGTQVTVSS
# modifications: left off: a dimerising Fc or GST
# B4: 564 (protein)
# CDR: TTVHQHTRKSGSCPDGWSDCHGSCDGVGCTGSDCVRYNARGYGRHACSGYAYTYSYEFYVN
# modifications: Anti-C5 ultralong CDR-H3
# B5: 568 (protein)
# CDR: TTVVQRTRKIVTCPDGYSYSEGCGKGDDCGGVHCCANGGVTCWYRHCCSTGTDTYSYEWYVD
# modifications: Anti-C5 ultralong CDR-H3
# B6: hC3Nb1Loop2ΔP (protein)
# VHH: QVQLVETGGGLVQAGGSLRLSCAASGSIFSLNAMGWFRQASGGGSGCPPGYKSGVDCSPGSECKWGCYAVDGRRYGGYGADSGVSGGGSKEREFVATINRSGGRTYYADSVKGRFTISRDNGKNMVYLQMHSLKPEDTAIYYCAAGTGWSPQTDNEYNYWGQGTQVTVSS
# modifications: left off: a dimerising Fc or GST
# B7: hC3nb1-K92: hC3nb1 with K92 ultralong CDR-H3 inserted between H74 and H75, displayed on M13 phage (protein)
# VHH: QVQLVETGGGLVQAGGSLRLSCAASGSIFSLNAMGWFRQAPGKEREFVATINRSGGRTYYADSVKGRFTISRDNGSIVHQKAHTSVTCPEGWSECGVAIYGYECGRWGCGHFLNSGPNISPYVSTHKYEWYVDAKNMVYLQMHSLKPEDTAIYYCAAGTGWSPQTDNEYNYWGQGTQVTVSS
# modifications: left off: large carriers
# B8: hC3Nb1 Loop 3 (protein)
# VHH: QVQLVETGGGLVQAGGSLRLSCAASGSIFSLNAMGWFRQAPGKEREFVATINRSGGRTYYADSVKGSGGGSGCPPGYKSGVDCSPGSECKWGCYAVDGRRYGGYGADSGVSGGGSRFTISRDNGKNMVYLQMHSLKPEDTAIYYCAAGTGWSPQTDNEYNYWGQGTQVTVSS
# modifications: left off: a dimerising Fc or GST
# B9: 542 (protein)
# CDR: TTVVQRTHKTTSCPDGYHFIEPCHSGLCWREGACNGDGICANGLGRCRTVSETSTYEFYVN
# modifications: Anti-C5 ultralong CDR-H3
# B10: hC3nb1-K149: hC3nb1 with K149 ultralong CDR-H3 inserted between H74 and H75, displayed on M13 phage (protein)
# VHH: QVQLVETGGGLVQAGGSLRLSCAASGSIFSLNAMGWFRQAPGKEREFVATINRSGGRTYYADSVKGRFTISRDNGTSVLQSTKPQKSCPDGFSYRSWDDFCCPMVGRCLAPRNTYTTEFTIEAKNMVYLQMHSLKPEDTAIYYCAAGTGWSPQTDNEYNYWGQGTQVTVSS
# modifications: left off: large carriers
# B11: hC3Nb1 C-Term (protein)
# VHH: QVQLVETGGGLVQAGGSLRLSCAASGSIFSLNAMGWFRQAPGKEREFVATINRSGGRTYYADSVKGRFTISRDNGKNMVYLQMHSLKPEDTAIYYCAAGTGWSPQTDNEYNYWGQGTQVTVSSGGGSGCPPGYKSGVDCSPGSECKWGCYAVDGRRYGGYGADSGV
# modifications: left off: a dimerising Fc or GST
# B12: hC3nb1-K57: hC3nb1 with K57 ultralong CDR-H3 inserted between H74 and H75, displayed on M13 phage (protein)
# VHH: QVQLVETGGGLVQAGGSLRLSCAASGSIFSLNAMGWFRQAPGKEREFVATINRSGGRTYYADSVKGRFTISRDNGTTVHQRTIKSGCPPGYKSGVDCSPGSECKWGCYAVDGRRYGGYGADSGVGSTYTHEFYVDAKNMVYLQMHSLKPEDTAIYYCAAGTGWSPQTDNEYNYWGQGTQVTVSS
# modifications: left off: large carriers
# B13: hC3nb1-K8: hC3nb1 with K8 ultralong CDR-H3 inserted between H74 and H75, displayed on M13 phage (protein)
# VHH: QVQLVETGGGLVQAGGSLRLSCAASGSIFSLNAMGWFRQAPGKEREFVATINRSGGRTYYADSVKGRFTISRDNGTVQQKTHQVCPDGFNWGYGCAAGSSRFCTRHDWCCYDERADSHTYGFCTGNRVTNTYEFHADAKNMVYLQMHSLKPEDTAIYYCAAGTGWSPQTDNEYNYWGQGTQVTVSS
# modifications: left off: large carriers
# B14: 563 (protein)
# CDR: TTVHQQTKKQKSCPDGWGHSDDCNCACSANAYACCKRDWLLPGPSCECSTYCVSHTYQWYV
# modifications: Anti-C5 ultralong CDR-H3
# B15: 556 (protein)
# CDR: TTVHQKTTRVNSCPDGYGYGDGYCYDSGCSASDCYGVDALYSYGHCGCSIYTERPRYEWYVD
# modifications: Anti-C5 ultralong CDR-H3
# Assays:
# C5 [1] = target: T1, C5 (Homo sapiens, UniProt P01031); test: Biacore (SPR) single-cycle kinetics on immobilised C5; assay type: binding; details: C5 binding, Biacore, n = 3 independent experiments; for Mean Koff: in 1/s
# Method: Binding to C5 was measured using surface plasmon resonance (SPR) single-cycle kinetics as described below.
# Biacore single-cycle kinetics. Using a Biacore 8K (GE Healthcare), C5 was immobilized on a CM5 chip by amine coupling. Flow cells were activated using EDC/NHS (flow rate, 10 μL/min; contact time, 30 s). C5, at 1 μg/mL in pH 4.5 Sodium-acetate buffer, was immobilized on flow cell two only (flow rate, 10 μL/min; contact time, 420 s). Finally, ethanolamine was applied to both flow cells (flow rate, 10 μL/min; contact time, 420 s). A final immobilization level of approximately 2,000 response units was obtained.
# Single-cycle kinetics were measured using titrations in HBS-EP buffer. A high flow rate of 40 μL/min was used, with a contact time of 230 s and a dissociation time of 900 s. Binding to the reference surface was subtracted, and the data were fitted to a single-site binding model using Biacore evaluation software.
# We measured individual rate constants (kon and koff) and equilibrium dissociation constants (KD) for knob domain peptides binding to C5 by the Biacore single-cycle kinetics method described above.
# We used SPR single cycle kinetics to measure binding to human C5 protein.
# C5 [2] = target: T1, C5; details: C5 coated directly and biotinylated C5 captured on streptavidin; OD 630 nm
# C3 protein = C3 protein (Homo sapiens, UniProt P01024); details: C3 coated directly and biotinylated C3 captured on streptavidin; OD 630 nm
# C5 [3] = target: T1, C5; test: Monoclonal phage screening ELISA, human C5; assay type: binding; details: anti-C5 ultralong CDR-H3; binder = OD>0.2 AU
# Method: (§1) For the C5 libraries, a single round of enrichment was performed with either human or rat C5 protein. […] Phage were blocked for 30 minutes. Biotinylated antigen was added to the blocked phage at a concentration of 100 nM and incubated at room temperature with mixing.
# (§2) Colonies were picked into a 96-well culture plate containing selective medium 2TY supplemented with 1% Glucose and 100 μg/ml Carbenicillin and was incubated at 37° C. until wells reached mid-log phase of growth prior to addition of M13K07 helper phage. The block was incubated without shaking for 1 hour to achieve infection and phage production using continued culture in selective media supplemented with 50 μg/ml Kanamycin and 100 μg/ml Carbenicillin.
# Binding to antigen was assessed by monoclonal phage ELISA, 96-well flat bottom Nunc MaxiSorp plates (Thermofisher) were coated with a 2.5 μg/ml solution of human, mouse, or rat serum albumin, human C5 or mouse C5 diluted with PBS, and left overnight at 4° C. Negative control plate and Anti-myc tag plate were also prepared.
# Monoclonal phage rescue supernatants were blocked with an equal volume of a 2% milk (w/v) in PBS, for serum albumin proteins, or 2% BSA and 2% milk (w/v) in PBS solution. The coating solution was removed from coated Nunc plates and each plate was blocked with 1% BSA in PBS (for C5 libraries) or 1% milk powder (for albumin library). Both phage and Nunc plates were blocked for 1 hour at room temperature. Nunc plates were washed using a 96-well microplate washer (BioTek) with a PBS solution contain 0.1% Tween20 (Sigma Aldrich). 100 of blocked phage solution was added to each well of Nunc MaxiSorp plate and left shaking at room temperature for 1 hour. Plates were washed and dried as previously described. 100 of an Anti-M13-Horse radish peroxidase conjugated antibody (GE Healthcare) diluted (1:5,000) in a 1% BSA or milk solution was added to each well and left shaking at room temperature for 1 hour. Plates were washed again and 50 μL of TMB solution (Merck Millipore) was added to each well. Plates were left shaking for 10 minutes. Absorbance was measured at 630 nm and 490 nm. Binding signals were obtained where Absorbance at 630 nm was >3-times the signal upon irrelevant antigen.
# By monoclonal phage ELISA the following ultralong CDR-H3 sequences were identified as binders (OD>0.2 AU): […]
# [4] = target: human complement component C3 (Homo sapiens, UniProt P01024); test: SPR binding / counter screen on complement component C3; details: Biacore, n = 3 independent experiments
# Source text: The PGT121-knob domain fusion proteins were counter screened for binding to human complement component C3. C3 is the closest human homologue to C5, sharing a conserved fold and a sequence homology of 26.5%.
# We measured binding to C3 and C5 by SPR multi-cycle kinetics and we report full binding kinetics and equilibrium dissociation constants (KD) for binding to both proteins.
# rat C5 protein = rat C5 protein (Rattus norvegicus, UniProt P08650); test: Monoclonal phage screening ELISA, rat C5; assay type: binding; details: anti-C5 ultralong CDR-H3; binder = OD>0.2 AU
# Method: as §1, §2
# […] Negative control plate and Anti-myc tag plate were also prepared.
# Monoclonal phage rescue supernatants were blocked with an equal volume of a 2% milk (w/v) in PBS, for serum albumin proteins, or 2% BSA and 2% milk (w/v) in PBS solution. The coating solution was removed from coated Nunc plates and each plate was blocked with 1% BSA in PBS (for C5 libraries) or 1% milk powder (for albumin library). Both phage and Nunc plates were blocked for 1 hour at room temperature. […] Absorbance was measured at 630 nm and 490 nm. Binding signals were obtained where Absorbance at 630 nm was >3-times the signal upon irrelevant antigen. […]
# T1 sequence (P01031 19-1676): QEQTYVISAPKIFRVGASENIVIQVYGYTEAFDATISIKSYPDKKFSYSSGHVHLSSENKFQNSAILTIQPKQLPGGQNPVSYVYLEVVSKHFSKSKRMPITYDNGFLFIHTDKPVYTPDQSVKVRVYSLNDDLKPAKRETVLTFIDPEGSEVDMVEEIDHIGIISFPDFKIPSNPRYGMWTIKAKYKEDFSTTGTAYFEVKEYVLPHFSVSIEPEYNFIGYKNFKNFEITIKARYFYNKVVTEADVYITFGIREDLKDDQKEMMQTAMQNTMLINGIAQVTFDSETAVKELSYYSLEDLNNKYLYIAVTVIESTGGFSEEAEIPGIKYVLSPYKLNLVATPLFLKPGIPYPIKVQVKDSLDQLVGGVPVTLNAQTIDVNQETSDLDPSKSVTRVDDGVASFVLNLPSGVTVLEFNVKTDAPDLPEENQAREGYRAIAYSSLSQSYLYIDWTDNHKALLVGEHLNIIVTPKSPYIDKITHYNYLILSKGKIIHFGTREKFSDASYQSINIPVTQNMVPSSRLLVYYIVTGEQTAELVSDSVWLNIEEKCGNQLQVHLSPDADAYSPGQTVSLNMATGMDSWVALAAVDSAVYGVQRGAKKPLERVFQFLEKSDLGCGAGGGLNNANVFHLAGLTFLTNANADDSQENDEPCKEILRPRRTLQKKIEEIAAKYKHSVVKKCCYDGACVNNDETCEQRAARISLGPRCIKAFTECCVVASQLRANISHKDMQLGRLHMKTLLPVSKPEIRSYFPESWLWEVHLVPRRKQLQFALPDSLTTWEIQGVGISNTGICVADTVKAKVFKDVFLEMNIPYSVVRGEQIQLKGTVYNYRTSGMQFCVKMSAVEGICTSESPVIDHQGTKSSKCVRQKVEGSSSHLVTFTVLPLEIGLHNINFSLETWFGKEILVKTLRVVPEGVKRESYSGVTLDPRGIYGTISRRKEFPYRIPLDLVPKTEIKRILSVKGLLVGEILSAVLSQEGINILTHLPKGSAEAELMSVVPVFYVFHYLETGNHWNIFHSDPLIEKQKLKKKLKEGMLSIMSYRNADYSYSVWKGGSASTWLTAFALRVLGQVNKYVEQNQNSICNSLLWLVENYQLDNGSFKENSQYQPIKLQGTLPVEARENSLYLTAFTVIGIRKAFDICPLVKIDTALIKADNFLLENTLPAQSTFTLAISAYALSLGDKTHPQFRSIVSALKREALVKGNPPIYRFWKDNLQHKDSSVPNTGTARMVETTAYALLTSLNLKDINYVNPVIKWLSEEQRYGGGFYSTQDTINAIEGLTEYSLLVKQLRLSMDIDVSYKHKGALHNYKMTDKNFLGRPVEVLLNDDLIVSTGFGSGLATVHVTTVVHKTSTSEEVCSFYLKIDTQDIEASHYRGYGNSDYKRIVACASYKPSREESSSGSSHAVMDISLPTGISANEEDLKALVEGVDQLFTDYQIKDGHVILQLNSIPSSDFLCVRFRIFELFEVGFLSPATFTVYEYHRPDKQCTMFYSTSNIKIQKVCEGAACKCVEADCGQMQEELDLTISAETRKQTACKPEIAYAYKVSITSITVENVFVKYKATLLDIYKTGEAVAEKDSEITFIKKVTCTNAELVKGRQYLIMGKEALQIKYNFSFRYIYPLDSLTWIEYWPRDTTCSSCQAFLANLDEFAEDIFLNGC
# Sequence of human complement component C3 (P01024 23-1663): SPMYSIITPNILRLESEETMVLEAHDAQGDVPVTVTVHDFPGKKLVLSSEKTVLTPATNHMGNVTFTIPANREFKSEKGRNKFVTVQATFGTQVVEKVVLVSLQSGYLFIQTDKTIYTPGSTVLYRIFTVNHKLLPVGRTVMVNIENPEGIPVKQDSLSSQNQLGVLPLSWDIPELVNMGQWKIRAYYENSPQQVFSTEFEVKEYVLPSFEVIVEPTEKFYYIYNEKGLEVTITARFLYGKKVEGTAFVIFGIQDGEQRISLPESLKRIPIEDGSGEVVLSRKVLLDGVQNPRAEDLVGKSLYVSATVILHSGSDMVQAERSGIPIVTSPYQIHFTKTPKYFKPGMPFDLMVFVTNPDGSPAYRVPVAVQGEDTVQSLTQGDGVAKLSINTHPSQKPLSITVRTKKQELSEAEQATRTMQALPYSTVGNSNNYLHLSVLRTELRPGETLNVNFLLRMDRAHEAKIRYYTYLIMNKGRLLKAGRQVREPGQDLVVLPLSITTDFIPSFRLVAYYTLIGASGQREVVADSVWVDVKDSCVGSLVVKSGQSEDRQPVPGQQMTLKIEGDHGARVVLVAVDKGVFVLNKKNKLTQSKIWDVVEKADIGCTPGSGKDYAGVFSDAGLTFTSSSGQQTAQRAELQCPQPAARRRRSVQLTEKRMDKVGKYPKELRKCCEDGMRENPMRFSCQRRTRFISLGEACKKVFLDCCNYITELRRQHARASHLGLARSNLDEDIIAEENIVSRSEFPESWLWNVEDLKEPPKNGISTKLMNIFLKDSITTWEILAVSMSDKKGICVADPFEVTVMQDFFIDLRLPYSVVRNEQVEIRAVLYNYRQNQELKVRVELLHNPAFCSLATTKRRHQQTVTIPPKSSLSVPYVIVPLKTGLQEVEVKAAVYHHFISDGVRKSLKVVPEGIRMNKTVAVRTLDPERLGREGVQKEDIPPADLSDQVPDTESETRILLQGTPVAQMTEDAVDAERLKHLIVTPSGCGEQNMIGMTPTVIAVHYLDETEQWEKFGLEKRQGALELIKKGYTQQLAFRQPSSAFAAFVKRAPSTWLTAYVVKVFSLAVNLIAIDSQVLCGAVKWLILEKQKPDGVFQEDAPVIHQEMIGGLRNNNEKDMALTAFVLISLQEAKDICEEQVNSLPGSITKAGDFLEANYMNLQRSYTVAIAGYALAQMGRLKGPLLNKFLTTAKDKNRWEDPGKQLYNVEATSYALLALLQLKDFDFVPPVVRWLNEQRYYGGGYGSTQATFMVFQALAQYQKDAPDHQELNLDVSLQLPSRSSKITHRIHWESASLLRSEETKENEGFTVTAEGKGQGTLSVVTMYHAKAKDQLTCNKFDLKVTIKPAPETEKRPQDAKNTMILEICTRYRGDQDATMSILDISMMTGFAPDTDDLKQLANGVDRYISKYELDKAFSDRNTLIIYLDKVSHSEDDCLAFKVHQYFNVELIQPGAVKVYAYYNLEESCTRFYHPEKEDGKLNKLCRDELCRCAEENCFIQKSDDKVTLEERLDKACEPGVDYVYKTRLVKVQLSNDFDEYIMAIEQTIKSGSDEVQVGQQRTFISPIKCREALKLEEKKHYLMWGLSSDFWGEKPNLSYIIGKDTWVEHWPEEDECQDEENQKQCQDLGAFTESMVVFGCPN
# Sequence of C3 protein (P01024 23-1663): as above
# Sequence of rat C5 protein (P08650 19-674 limits assumed): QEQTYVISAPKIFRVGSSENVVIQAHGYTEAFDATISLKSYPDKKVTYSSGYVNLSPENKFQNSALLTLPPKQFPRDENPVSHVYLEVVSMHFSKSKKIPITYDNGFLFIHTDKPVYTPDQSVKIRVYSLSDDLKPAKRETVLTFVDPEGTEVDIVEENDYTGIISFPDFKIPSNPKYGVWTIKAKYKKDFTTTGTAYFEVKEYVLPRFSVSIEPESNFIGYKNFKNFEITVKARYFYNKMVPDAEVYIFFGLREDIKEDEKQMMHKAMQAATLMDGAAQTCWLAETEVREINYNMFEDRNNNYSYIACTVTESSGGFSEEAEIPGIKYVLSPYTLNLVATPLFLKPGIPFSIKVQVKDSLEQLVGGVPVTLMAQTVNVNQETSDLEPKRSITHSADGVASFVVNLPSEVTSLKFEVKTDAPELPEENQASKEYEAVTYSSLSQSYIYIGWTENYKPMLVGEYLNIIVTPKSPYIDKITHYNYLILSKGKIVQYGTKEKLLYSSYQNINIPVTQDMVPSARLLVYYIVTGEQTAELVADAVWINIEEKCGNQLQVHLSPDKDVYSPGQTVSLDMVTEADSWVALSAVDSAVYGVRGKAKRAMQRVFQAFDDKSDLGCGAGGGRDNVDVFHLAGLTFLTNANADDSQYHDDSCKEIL
# Sequence of rat C5 protein (P08650 679-1681 limits assumed): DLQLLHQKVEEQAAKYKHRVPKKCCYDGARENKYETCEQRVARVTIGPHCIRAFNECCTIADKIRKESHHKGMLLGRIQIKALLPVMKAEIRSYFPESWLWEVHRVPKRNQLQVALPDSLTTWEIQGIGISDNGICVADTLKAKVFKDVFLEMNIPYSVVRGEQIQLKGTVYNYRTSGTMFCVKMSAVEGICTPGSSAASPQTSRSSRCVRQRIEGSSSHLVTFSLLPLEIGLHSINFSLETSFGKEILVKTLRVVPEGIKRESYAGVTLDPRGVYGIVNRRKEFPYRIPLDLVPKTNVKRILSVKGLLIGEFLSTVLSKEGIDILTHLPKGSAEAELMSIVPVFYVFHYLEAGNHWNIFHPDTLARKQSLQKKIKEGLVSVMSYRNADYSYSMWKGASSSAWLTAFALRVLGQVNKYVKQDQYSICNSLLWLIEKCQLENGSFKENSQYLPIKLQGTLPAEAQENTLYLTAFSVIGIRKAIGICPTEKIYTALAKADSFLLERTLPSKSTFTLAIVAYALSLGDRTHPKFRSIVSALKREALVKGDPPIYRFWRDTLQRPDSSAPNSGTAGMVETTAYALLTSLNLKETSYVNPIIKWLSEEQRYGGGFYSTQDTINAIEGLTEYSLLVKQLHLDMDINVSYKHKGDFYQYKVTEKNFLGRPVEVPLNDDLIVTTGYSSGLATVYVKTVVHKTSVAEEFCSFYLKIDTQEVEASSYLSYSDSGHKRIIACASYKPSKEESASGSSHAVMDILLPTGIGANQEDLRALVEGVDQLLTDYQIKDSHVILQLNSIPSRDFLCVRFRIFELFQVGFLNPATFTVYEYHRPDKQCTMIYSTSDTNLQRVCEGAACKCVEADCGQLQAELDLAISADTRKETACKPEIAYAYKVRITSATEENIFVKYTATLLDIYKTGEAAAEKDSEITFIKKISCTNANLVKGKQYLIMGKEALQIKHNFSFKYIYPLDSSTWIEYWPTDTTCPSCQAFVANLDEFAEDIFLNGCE
Molecule,Mean Kon (C5 [1]),Mean Koff (C5 [1]),binding to human C5 (phage ELISA) (C5 [2]),Specificity (C5 [3]),further results
B1,6.18E+05,1.18E−04,–,–,–
B2,2.85E+05,9.09E−05,–,–,–
B3,–,–,No cross-reactivity to C5 protein was observed,–,binding to human C3 (phage ELISA) (C3 protein): binding to human C3
B4,–,–,–,Human,–
B5,–,–,–,Human,–
B6,1.76E+05,1.48E−04,–,–,Kd [4]: 1.51 nM; Mean Kon [4]: 7.32E+05; Mean Koff ([4]; in 1/s): 2.01E−04
B7,–,–,displayed binding to human C5,–,–
B8,2.37E+05,1.37E−04,–,–,–
B9,–,–,–,Human,–
B10,–,–,did not bind,–,binding to human C3 (phage ELISA) (C3 protein): did not bind
B11,4.52E+05,1.19E−04,–,–,–
B12,–,–,displayed binding to human C5,–,–
B13,–,–,displayed binding to human C5,–,–
B14,–,–,–,Human,–
B15,–,–,–,Human and Rat,Specificity (rat C5 protein): Human and Rat
